# Experimental data published in US20030170704A1, “Substance capable of controlling the inclusion of exon 10 of the tau gene, and its therapeutic use against tauopathies” (Max-Planck-Gesellschaft Zur Foerd Der Wissen. E.V., priority 1999, published 2003).
# B1: SRp75: serine/arginine-rich (SR) protein splicing regulator, expressed from cDNA under the CMV promoter (protein, UniProt Q08170 1-494, looked up)
# Serine/arginine-rich splicing …: MPRVYIGRLSYQARERDVERFFKGYGKILEVDLKNGYGFVEFDDLRDADDAVYELNGKDLCGERVIVEHARGPRRDGSYGSGRSGYGYRRSGRDKYGPPTRTEYRLIVENLSSRCSWQDLKDYMRQAGEVTYADAHKGRKNEGVIEFVSYSDMKRALEKLDGTEVNGRKIRLVEDKPGSRRRRSYSRSRSHSRSRSRSRHSRKSRSRSGSSKSSHSKSRSRSRSGSRSRSKSRSRSQSRSRSKKEKSRSPSKEKSRSRSHSAGKSRSKSKDQAEEKIQNNDNVGKPKSRSPSRHKSKSKSRSRSQERRVEEEKRGSVSRGRSQEKSLRQSRSRSRSKGGSRSRSRSRSKSKDKRKGRKRSREESRSRSRSRSKSERSRKRGSKRDSKAGSSKKKKKEDTDRSQSRSPSRSVSKEREHAKSESSQREGRGESENAGTNQETRSRSRSNSKSKPNLPSESRSRSKSASKTRSRSKSRSRSASRSPSRSRSRSHSRS
# B2: hSWAP: specific splicing regulator Suppressor of White Apricot, expressed from the SV40 early promoter (protein, UniProt Q12872 1-951, looked up)
# Splicing factor, suppressor …: MYGASGGRAKPERKSGAKEEAGPGGAGGGGSRVELLVFGYACKLFRDDERALAQEQGQHLIPWMGDHKILIDRYDGRGHLHDLSEYDAEYSTWNRDYQLSEEEARIEALCDEERYLALHTDLLEEEARQEEEYKRLSEALAEDGSYNAVGFTYGSDYYDPSEPTEEEEPSKQREKNEAENLEENEEPFVAPLGLSVPSDVELPPTAKMHAIIERTASFVCRQGAQFEIMLKAKQARNSQFDFLRFDHYLNPYYKFIQKAMKEGRYTVLAENKSDEKKKSGVSSDNEDDDDEEDGNYLHPSLFASKKCNRLEELMKPLKVVDPDHPLAALVRKAQADSSTPTPHNADGAPVQPSQVEYTADSTVAAMYYSYYMLPDGTYCLAPPPPGIDVTTYYSTLPAGVTVSNSPGVTTTAPPPPGTTPLPPPTTAETSSGATSTTTTTSALAPVAAIIPPPPDVQPVIDKLAEYVARNGLKFETSVRAKNDQRFEFLQPWHQYNAYYEFKKQFFLQKEGGDSMQAVSAPEEAPTDSAPEKPSDAGEDGAPEDAAEVGARAGSGGKKEASSSKTVPDGKLVKASFAPISFAIKAKENDLLPLEKNRVKLDDDSDDDEESKEGQESSSSAANTNPAVAPPCVVVEEKKPQLTQEELEAKQAKQKLEDRLAAAAREKLAQASKESKEKQLQAERKRKAALFLQTLKNPLPEAEAGKIEESPFSVEESSTTPCPLLTGGRPLPTLEVKPPDRPSSKSKDPPREEEKEKKKKKHKKRSRTRSRSPKYHSSSKSRSRSHSKAKHSLPSAYRTVRRSRSRSRSPRRRAHSPERRREERSVPTAYRVSRSPGASRKRTRSRSPHEKKKKRRSRSRTKSKARSQSVSPSKQAAPRPAAPAAHSAHSASVSPVESRGSSQERSRGVSQEKEAQISSAIVSSVQSKITQDLMAKVRAMLAASKNLQTSAS
# B3: U2AF65: constitutive splicing factor, expressed from cDNA under the CMV promoter (protein, UniProt P26368 2-475, looked up)
# Splicing factor U2AF 65 kDa …: SDFDEFERQLNENKQERDKENRHRKRSHSRSRSRDRKRRSRSRDRRNRDQRSASRDRRRRSKPLTRGAKEEHGGLIRSPRHEKKKKVRKYWDVPPPGFEHITPMQYKAMQAAGQIPATALLPTMTPDGLAVTPTPVPVVGSQMTRQARRLYVGNIPFGITEEAMMDFFNAQMRLGGLTQAPGNPVLAVQINQDKNFAFLEFRSVDETTQAMAFDGIIFQGQSLKIRRPHDYQPLPGMSENPSVYVPGVVSTVVPDSAHKLFIGGLPNYLNDDQVKELLTSFGPLKAFNLVKDSATGLSKGYAFCEYVDINVTDQAIAGLNGMQLGDKKLLVQRASVGAKNATLVSPPSTINQTPVTLQVPGLMSSQVQMGGHPTEVLCLMNMVLPEELLDDEEYEEIVEDVRDECSKYGLVKSIEIPRPVDGVEVPGCGKIFVEFTSVFDCQKAMQGLTGRKFANRVVVTKYCDPDSYHRRDFW
# Tested on: tau exon 10 inclusion (SV10 minigene)
# Test: RT-PCR of tau exon 10 minigene SV10 1:1 co-transfected with splicing regulator cDNA plasmids in COS cells
# Type: cell-based, human
# Details: 1:1 co-transfection, FIG. 4
# Experimental: Plasmid DNA was purified by cesium chloride banding (Sambrook et al., 1989). The plasmids obtained in Examples 1 and 2 were introduced into cells by the lipofection method (LT1, Panvera).
# Plates (100 mm) that had reached ˜30% confluence were transfected with 10 μg of construct DNA or 5 μg of each plasmid for co-transfections. The medium was changed 16 h after transfection, without glycerol shock.
# Total RNA was isolated 48 h post-transfection by the TRIzol method (Life Technologies).
# For PCR analysis of RNA, 5 mg of total RNA from transiently transfected cells or 1 mg of polyA^+ RNA were reverse transcribed using random hexamer primers and 200 units of reverse transcriptase (RNAase H^− Superscript, Life Technologies), in a total volume of 20 ml for 1 h at 42° C. Part of this reaction mix (5 ml) was then diluted to a final volume of 50 ml, the concentrations of the buffer and dNTPs were adjusted for PCR and the mixture was amplified for 22 cycles. The conditions were: for the endogenous gene, denaturation at 94° C. for 1 min, annealing at 58° C. for 1 min, extension at 72° C. for 1 min; for the constructs, denaturation at 94° C. for 1 min, annealing at 65° C. for 1 min, extension at 72° C. for 1 min.
# The primer pair used for the endogenous exon 10 pattern was HT9SmS/1017HT (Table 2b). In the case of transfected cells, the primers INS1 and INS3 (Table 2b) were chosen to only amplify products arising from the constructs.
# The RT-PCR experiments were done twice with the polyA^+ RNAs and with total RNAs from three independent transfections, to ensure reproducibility. […] In FIGS. 1-4, the percent of the 10^+ isoform was calculated by scanning the bands from three independent transfections and measuring the areas under the curves (by the IPLab Gel program from Scanalytics).
# RT-PCR was performed in a manner as described in Example 4 (using primer pair: INS1/INS3), except that-mammalian cells were analyzed which had been 1:1 co-transfected with tau exon 10 containing minigene constructs (denoted SV 10) and with plasmids containing cDNA of various plicing regulators. […]
row,Molecule,effect on tau exon 10 inclusion (10+/10- isoform ratio by RT-PCR)
1,B1,inhibited
2,B2,inhibited
3,B3,inhibited
